One assay deals with FcgR3a(F), biotinylated (UniProt P08637). As to the kind of experiment: SPR.
In another assay the target is FcgR3a(V), biotinylated (UniProt P08637). Nature of the assay: SPR.
For the next assay, the target named is FcgR3b Biotinylated (UniProt O75015). As to the kind of experiment: SPR. A general note: In SPR one partner is held on a chip, and binding of the other changes the refractive index at the surface.
The target of a further assay is C1q complement component (UniProt P02745). As to the kind of experiment: BLI. Background: Biolayer interferometry detects binding as a change in optical thickness at a sensor tip.
UniProt P02745, sequence (P02745 23-245, chain 1 of 3): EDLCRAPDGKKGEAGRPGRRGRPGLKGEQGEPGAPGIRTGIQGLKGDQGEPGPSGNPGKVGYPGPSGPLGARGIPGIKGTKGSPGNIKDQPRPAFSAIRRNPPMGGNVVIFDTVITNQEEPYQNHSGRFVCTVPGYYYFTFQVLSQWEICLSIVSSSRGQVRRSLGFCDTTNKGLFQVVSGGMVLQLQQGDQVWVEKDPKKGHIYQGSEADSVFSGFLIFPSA
UniProt P02745, sequence (P02746 28-253, chain 2 of 3, further chain): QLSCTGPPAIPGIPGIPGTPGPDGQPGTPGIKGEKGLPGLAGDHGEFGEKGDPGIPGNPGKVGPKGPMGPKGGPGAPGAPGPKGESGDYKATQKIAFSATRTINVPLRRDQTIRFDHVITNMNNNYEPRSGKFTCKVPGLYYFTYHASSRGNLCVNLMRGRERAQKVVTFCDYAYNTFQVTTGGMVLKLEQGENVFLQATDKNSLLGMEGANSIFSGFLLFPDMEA
UniProt P02745, sequence (P02747 29-245, chain 3 of 3, further chain): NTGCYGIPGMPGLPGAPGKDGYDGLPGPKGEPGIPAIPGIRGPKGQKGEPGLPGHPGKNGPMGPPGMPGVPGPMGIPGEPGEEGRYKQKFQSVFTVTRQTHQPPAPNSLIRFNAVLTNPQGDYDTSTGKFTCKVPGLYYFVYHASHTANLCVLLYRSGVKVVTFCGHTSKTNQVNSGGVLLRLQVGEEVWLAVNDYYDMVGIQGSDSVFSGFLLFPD

UniProt O75015, sequence (O75015 17-200): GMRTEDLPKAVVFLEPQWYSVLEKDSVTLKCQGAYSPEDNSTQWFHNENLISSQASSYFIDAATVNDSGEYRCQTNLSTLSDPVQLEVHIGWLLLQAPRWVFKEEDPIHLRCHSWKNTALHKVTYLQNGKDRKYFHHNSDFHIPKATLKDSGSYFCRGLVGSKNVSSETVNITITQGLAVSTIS

What is called Kd is the free concentration of one partner at which half of the binding sites on the other are occupied at equilibrium, for simple one-to-one binding. In the case of CIS43 wild-type mAb (IgG1m3), the Kd in the assay with FcgR3a(F), biotinylated amounted to 2510 nM; in the assay with FcgR3a(V), biotinylated, 590 nM; with FcgR3b Biotinylated, 5240 nM; with C1q complement component, 1.8 nM.

On to CIS43-LS-GAALIE (IgG1m3-LS-GAALIE), for which, in the assay with FcgR3b Biotinylated, the Kd came out at 1020 nM.

For the substance CIS43-LS (IgG1m3-LS), the Kd with FcgR3a(F), biotinylated was 2780 nM; with FcgR3a(V), biotinylated it was 590 nM; with FcgR3b Biotinylated, 5010 nM; with C1q complement component, 1.5 nM.

CIS43-LS-G236A (IgG1m3-LS-GA): the Kd with FcgR3a(F), biotinylated came out at 4620 nM; with FcgR3a(V), biotinylated, 1270 nM; with FcgR3b Biotinylated, 17400 nM.

In the case of CIS43-LS-AFUC (afucosylated CIS43-LS), the dissociation constant Kd in the assay with FcgR3a(F), biotinylated was 160 nM; with FcgR3b Biotinylated it was 330 nM; in the assay with C1q complement component, 1.7 nM.
